Reference: article PMC10215022 (mAbs, 2023)

Molecular target: SARS-CoV-2 Wuhan (WT) spike protein RBD, His-tagged (SARS-CoV-2 Wuhan (WT), UniProt P0DTC2)
Assay: SPR

Binder	Kd [nM]	koff [s⁻¹]	kon [M⁻¹ s⁻¹]
imdevimab (REGN10987) (antibody, V domains shown) VH: QVQLVESGGGVVQPGRSLRLSCAASGFTFSNYAMYWVRQAPGKGLEWVAVISYDGSNKYYADSVKGRFTISRDNSKNTLYLQMNSLRTEDTAVYYCASGSDYGDYLLVYWGQGTLVTVSS VL: QSALTQPASVSGSPGQSITISCTGTSSDVGGYNYVSWYQQHPGKAPKLMIYDVSKRPSGVSNRFSGSKSGNTASLTISGLQSEDEADYYCNSLTSISTWVFGGGTKLTVL	0.087	0.00029	3.4e+06
casirivimab (REGN10933) (antibody, V domains shown) VH: QVQLVESGGGLVKPGGSLRLSCAASGFTFSDYYMSWIRQAPGKGLEWVSYITYSGSTIYYADSVKGRFTISRDNAKSSLYLQMNSLRAEDTAVYYCARDRGTTMVPFDYWGQGTLVTVSS VL: DIQMTQSPSSLSASVGDRVTITCQASQDITNYLNWYQQKPGKAPKLLIYAASNLETGVPSRFSGSGSGTDFTFTISGLQPEDIATYYCQQYDNLPLTFGGGTKVEIK	0.071	0.00021	3e+06
